Data reported in the supplement of paper PMC9170038.

Tested on: K4 kissing-loop RNA reporter
Assay: apparent KD of K4 kissing-loop reporter; higher = weaker reporter binding
Conditions: Eterna round: R107
Procedure: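 RNA-MaP round R107: designed RNA switches with theophylline, tryptophan, arginine or FMN aptamers are transcribed on-chip within common flanks. They are titrated with a labelled K4 kissing-loop RNA reporter in RNA-MaP buffer (100 mM Tris pH 7.5, 80 mM KCl, 4 mM MgCl2), without ligand or with the indicated ligand. Median apparent KD per design.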

[1] = input ligand: theophylline 20 uM
[2] = input ligand: tryptophan 2.4 mM
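Note: bound reporter read as fluorescence of individual clusters on recovered sequencing chips by microscopy, with normalized cluster intensities fitted with a binding model.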

Sequence | apparent KD of K4 kissing-loop reporter (input ligand: FMN 200 uM) [nM] | apparent KD of K4 kissing-loop reporter (input ligand: arginine 13.2 mM) [nM] | apparent KD of K4 kissing-loop reporter (input ligand: none) [nM] | apparent KD of K4 kissing-loop reporter [1] [nM] | apparent KD of K4 kissing-loop reporter [2] [nM]
CACGAUGAAUUCUCUAGGAGUGAUGUUUUUCGAGGACCGGUACGGCCGCCACUCGGACGACGAGCGUGGUAGCGGGCUGAAGACU [iuullin] | 521 | 205 | 1120 | 674 | 771
ACACUUUACGUAGGAUAUGCGACGAGUGAUGUUCGUCAGGCGGCUUUAGCUUAAGCAAGCCGCCUAGCAGAAGGACGGGCAGUGU [Bigemalaza] | 139 | 163 | 179 | 185 | 173
GGGUCUGCUCGAAGGAGCGCCCUGACAGGUUGCUGCCGUGGGCAGUGAUGUUGCUCAGUCCGGCAGGUAGGUCGCGAGCAGACCC | 109 | 118 | 102 | 89.8 | 105
GGGAGUAGUGCGGCCGCCACUGAGAAAGUAGAAGAAUAUAGUGAUGUUAUAUAGGAAUAAAAGAACAGGACCGGGCAUUAGAUUU [SSTRyptB.U] | 230 | 214 | 230 | 203 | 174
UGACAUUGCUCAGAUACCAGACUUGAGGAUCACCCAGGUGCCAAAUACGUACAAAUAAAAGUCCCUUGGCAGCUGAGCAAUGUCU [TheoBX 12] | 72.1 | 55.6 | 63.1 | 113 | 29.3
GAUAAUAGCACGGCCGCCACUGAAAAGCCGUGCUAUACGAGUGAUGUUCGUAAUUAUACGGGAUUCAGGACCGGGUGCAACGGUA [Tryp B SS t1] | 122 | 115 | 139 | 158 | 98.1
GCCGUAGAUUGAAGGAGCGGUAUGGGCGGUGGCUGAGUGAUGUUCAGGAAAAGUGGCUUCUACCAGGUAGGUCGCAAUCUACGGC | 108 | 103 | 127 | 146 | 113
GUGUCCUAGUCGGCCGCCACUGGUACGAAAAUAGAAGGACGUGUGCACAUGAGUGAUGUUCAUGUCAGGACCGGGACUAGGGUGU [KL-SSTryp-B6 Brourdwalk2] | 281 | 304 | 367 | 332 | 316
AGGUUUUGAUUAGGAUAUGCACUGAGGAGGAGAAUAUAGUGAUGUUAUAUAAUAGGAAUUAGUAGAGUAGAAGGGAUUGAGGUUU [SSFMNB.U] | 206 | 223 | 172 | 248 | 142
AGUGCACUGUCAGGAUAUAUACAGUGAUGUUGUGUAUGUCAGCAAGUCAAAGACUUGCUAUUUUGUAUAGAAGGGACUGUGUACA [whbob_Ex_FMNB__2th222] | 574 | 258 | 294 | 276 | 286
AAAUGAAGGGCUCGCAGUGAUGUUGCGAGACGAGGACCGGUACGGCCGCCACUCGGCCGCUACUUUGACUCGGGCUUUAAGCUAC [Usarusteer] | 148 | 139 | 145 | 140 | 138
UGACAUUGCUCAGAUACCAGACUUGAGGAUCACCCAGGUGCCAAAUAAACGUACAUAAAAGUCCCUUGGCAGCUGAGCAAUGUCU [TheoBX 11] | 64.8 | 24 | 55.9 | 85.8 | 76.5
ACUGGAAACAUCACGUAUCCAAAACUGGAUACCAGCUCGGAAACGAGCCCUUGGCAGCCAGAACUUGCAGUGAUGUUGCAAGUAA [Design9] | 386 | 323 | 384 | 392 | 398
GUAGGAUGAGGAGGAGGAUGAAUUACUGAAGGAGCGCAUAUUUAUGCAGGUAGGUCGCGGUAAAGAAGUAUAGUGAUGUUAUAUA [SSArgA.I] | 410 | 343 | 264 | 479 | 246
CGAACACCCUCGGCCGCCACUAGCCGUAGCCUGCGCUUGCGGAGUGAUGUUCUGAAGCAGGAUGUUAGGACCGGGAGCUACAUCC [theeternabot_sameState_KL_Trp_B_33] | 527 | 542 | 446 | 428 | 371
GCGUCGCAGGUCGCAGUACCAUCGCGGGAUACCAGCCCUGCUACCGGCCCUUGGCAGCCCGGUUAUCGGUUAGUGAUGUUAGCCA [theeternabot_sameState_KL_Theo_A_44] | 642 | 531 | 739 | 621 | 591
GUCUCAAAAGAGGCAAGCACUCACGAGGACAAGGAUAUCAUUUCAAUGAGAAGGUGUCCUCGUCCUCAGUGAUGUUGAGGAGUGC [Omei KL FMN A SS E 1] | 423 | 159 | 259 | 299 | 233
AAGAGUAAACUCUAACUCCUUAAGUCCGAAGGAGCGACUCAAUGGUCAGGUAGGUCGCGGACAAUCCUAGUGAUGUUAGGAUCUG [Arg A SS t5] | 252 | 220 | 268 | 260 | 211
CGAUCUUGGUCGGCCGCCACUACACCCACACCAAAUAGGAAAGUAGCGAGUGAUGUUUGUGACGUUAGGACCGGGACCACUGGUC [theeternabot_sameState_KL_Trp_B_25] | 586 | 321 | 526 | 564 | 392
UAAGAAUAAGUAGCAGUGAUGUUGCUACUACGAGGACCGGUACGGCCGCCACUCGAGCCGUACCAACUGCUACAAGGUACGAAUA [(H1)-(H2)-(Trp1)-(Trp2)-(T)'-(H)'-(T)''] | 281 | 224 | 242 | 243 | 257
GGCAGAGCGCGAAGGAGCGCCCUGACAGGUUGCUGCCGUGGGCAGUGAUGUUGCUCAGUCCGGCAGGUAGGUCGCGUGCUCUGCC | 167 | 115 | 225 | 116 | 148
